Measurements as given in publication doi:10.1101/2021.08.31.458345.

Legend:
[1] = target: gp41 subunit of ADA.CM.v4 Env (CTD truncated by 102 amino acids) (HIV-1 (subtype B isolate ADA)); assay: cryo-EM structure
[2] = target: immature Gag polyprotein (pr55 Gag precursor) (HIV-1); assay: cryo-EM structure

Substance	stoichiometry N [1]	stoichiometry N [2]
gp41 subunit of ADA.CM.v4 Env (CTD truncated by 102 amino acids) (domain or fragment)	3	
immature Gag polyprotein (pr55 Gag precursor) (natural protein)		6
